Test results published in the supplement of paper PMC10065799, “High-throughput profiling of sequence recognition by tyrosine kinases and SH2 domains using bacterial peptide display” (eLife, 2023).
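Note: 11-residue human phosphosite peptides and single-mutation variants displayed on the E. coli surface, counted by deep sequencing, each peptide's frequency after selection divided by its frequency in the unselected input library; frequency after pTyr selection over input frequency; kinase dosed for 20-30% of maximal phosphorylation in three min.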

These sequences were tested against FGFR3 (UniProt P22607) (assay: phosphorylation enrichment, bacterial display (enrichment ratio); higher = better substrate or ligand; peptides without Tyr show the background).
Chain of FGFR3 (P22607 whole entry, looked up): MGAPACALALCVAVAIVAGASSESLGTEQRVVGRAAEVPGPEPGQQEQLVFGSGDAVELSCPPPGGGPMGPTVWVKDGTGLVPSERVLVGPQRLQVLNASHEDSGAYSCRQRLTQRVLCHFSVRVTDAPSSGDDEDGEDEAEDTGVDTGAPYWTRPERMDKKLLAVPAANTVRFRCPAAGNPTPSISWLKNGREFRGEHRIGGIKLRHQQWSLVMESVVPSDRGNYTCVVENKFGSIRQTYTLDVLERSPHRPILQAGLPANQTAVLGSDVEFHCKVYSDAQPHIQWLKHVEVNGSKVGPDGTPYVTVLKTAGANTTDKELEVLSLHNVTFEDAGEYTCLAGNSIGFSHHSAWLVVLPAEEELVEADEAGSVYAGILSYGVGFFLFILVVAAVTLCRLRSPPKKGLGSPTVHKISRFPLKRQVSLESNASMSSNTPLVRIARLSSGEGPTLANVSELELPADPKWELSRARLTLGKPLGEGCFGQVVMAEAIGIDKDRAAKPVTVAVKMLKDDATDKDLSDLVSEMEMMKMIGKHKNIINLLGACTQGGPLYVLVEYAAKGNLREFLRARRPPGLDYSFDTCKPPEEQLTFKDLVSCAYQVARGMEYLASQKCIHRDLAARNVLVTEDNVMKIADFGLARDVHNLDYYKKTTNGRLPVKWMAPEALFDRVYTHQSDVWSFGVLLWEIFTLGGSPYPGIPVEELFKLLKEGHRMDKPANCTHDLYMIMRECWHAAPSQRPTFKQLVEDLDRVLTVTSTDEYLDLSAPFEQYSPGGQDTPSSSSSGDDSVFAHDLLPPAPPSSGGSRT
AGREEYSAMRD [KRAS_Y64_Q61R] showed a phosphorylation enrichment of 0.575. Sequence TDGNGYISFNE [LCP1_Y28] has a phosphorylation enrichment of 0.752. Work on ETDSEYVKLSK [C7orf57_Y70_A74S] yielded a phosphorylation enrichment of 0.667. RASSSYRETPS [SORBS1_Y79] showed a phosphorylation enrichment of 0.68. EKKDVYKTGEQ [CFH_Y1008_A1010T] gave a phosphorylation enrichment of 0.524. QMQAAYQKAVA [HBD_Y131_V134A] gave a phosphorylation enrichment of 0.508. RLNWIYFKDQT [RS1_Y165_YF] was tested, and the phosphorylation enrichment was 1.35. Work on RTCSSYTIEKI [PARP15_Y520_A521T] yielded a phosphorylation enrichment of 1.18. With KNITEYCRDLI [RECQL_Y492] the phosphorylation enrichment was 0.691. For MVIPNYSSRTE [UROC1_Y185], the phosphorylation enrichment was 0.416. HNVPICEGFAL [ACTC1_Y168_Y168C_YF] gave a phosphorylation enrichment of 0.947. With GGGFGYQKTKK [DDX18_Y643] the phosphorylation enrichment was 0.422. Sequence LNEQHYGGLTG [PGAM4_Y92_R90Q] has a phosphorylation enrichment of 0.972. KGFRGYSFDDI [TMEM230_Y110_YF] showed a phosphorylation enrichment of 0.501. Sequence VDTAMYATMQR [TPO_Y55] has a phosphorylation enrichment of 0.507. AAARPYHIQKW [ACSBG1_Y677] gave a phosphorylation enrichment of 0.584. VSSPKYGSNDE [TMCC2_Y473_D476N] showed a phosphorylation enrichment of 0.619. Work on KLKRSYCSPDI [USP8_Y717_S718C] yielded a phosphorylation enrichment of 0.534. In the case of CPSLPYSPVSS [CAMKK2_Y128], the phosphorylation enrichment was 0.7. For FQLPFYNTVPS [BMPR1A_Y458_M460T_YF], the phosphorylation enrichment was 0.699. YPPTHYIRRMP [SLC4A11_Y820_V824M] gave a phosphorylation enrichment of 0.493. In the case of LDYNEYFRYLN [HPRT1_Y198_D201Y], the phosphorylation enrichment was 2.1. KDQGGYAMHQD [MAPT_Y29_T30A] gave a phosphorylation enrichment of 0.574. CPASVYTKRCS [CPT2_Y508_R503C] showed a phosphorylation enrichment of 0.441. With ARMTNYGLPRY [TSPAN12_Y138] the phosphorylation enrichment was 0.441. Work on RFVFFYSFLLK [PTEN_Y178_YF] yielded a phosphorylation enrichment of 0.9. For LLKKMYLMLDN [STAT1_Y203], the phosphorylation enrichment was 0.721. With GIVEDYRPPFF [ACVRL1_Y421_YF] the phosphorylation enrichment was 0.667. KIIRRYVSSEG [ANK2_Y3907] gave a phosphorylation enrichment of 0.34. In the case of KSRQIYDAFIM [GRK3_Y109_R104K_YF], the phosphorylation enrichment was 0.6. RDIHDYIKHLG [UNC13C_Y308] showed a phosphorylation enrichment of 0.474. HDRNTYEKYLG [TF_Y666] gave a phosphorylation enrichment of 0.909. EQKKYYNAMKN [SCN5A_Y1495_K1500N] gave a phosphorylation enrichment of 0.382.

The sequences below were run on Fer (mouse) in the same assay as above.
AGREEYSAMRD [KRAS_Y64_Q61R] was tested, and the phosphorylation enrichment was 0.453. TDGNGYISFNE [LCP1_Y28] was tested, and the phosphorylation enrichment was 0.489. Sequence ETDSEYVKLSK [C7orf57_Y70_A74S] has a phosphorylation enrichment of 0.499. With RASSSYRETPS [SORBS1_Y79] the phosphorylation enrichment was 0.513. With EKKDVYKTGEQ [CFH_Y1008_A1010T] the phosphorylation enrichment was 0.447. Work on QMQAAYQKAVA [HBD_Y131_V134A] yielded a phosphorylation enrichment of 0.405. RLNWIYFKDQT [RS1_Y165_YF] gave a phosphorylation enrichment of 0.774. Sequence RTCSSYTIEKI [PARP15_Y520_A521T] has a phosphorylation enrichment of 0.502. For KNITEYCRDLI [RECQL_Y492], the phosphorylation enrichment was 0.502. Sequence MVIPNYSSRTE [UROC1_Y185] has a phosphorylation enrichment of 0.435. HNVPICEGFAL [ACTC1_Y168_Y168C_YF] gave a phosphorylation enrichment of 0.59. GGGFGYQKTKK [DDX18_Y643] showed a phosphorylation enrichment of 0.343. LNEQHYGGLTG [PGAM4_Y92_R90Q] showed a phosphorylation enrichment of 0.769. Work on KGFRGYSFDDI [TMEM230_Y110_YF] yielded a phosphorylation enrichment of 0.409. VDTAMYATMQR [TPO_Y55] was tested, and the phosphorylation enrichment was 0.519. AAARPYHIQKW [ACSBG1_Y677] showed a phosphorylation enrichment of 0.279. VSSPKYGSNDE [TMCC2_Y473_D476N] was tested, and the phosphorylation enrichment was 0.509. KLKRSYCSPDI [USP8_Y717_S718C] was tested, and the phosphorylation enrichment was 0.318. CPSLPYSPVSS [CAMKK2_Y128] showed a phosphorylation enrichment of 3.14. Sequence FQLPFYNTVPS [BMPR1A_Y458_M460T_YF] has a phosphorylation enrichment of 0.642. YPPTHYIRRMP [SLC4A11_Y820_V824M] showed a phosphorylation enrichment of 0.59. In the case of LDYNEYFRYLN [HPRT1_Y198_D201Y], the phosphorylation enrichment was 0.635. For KDQGGYAMHQD [MAPT_Y29_T30A], the phosphorylation enrichment was 0.419. For CPASVYTKRCS [CPT2_Y508_R503C], the phosphorylation enrichment was 0.354. ARMTNYGLPRY [TSPAN12_Y138] gave a phosphorylation enrichment of 0.576. Sequence RFVFFYSFLLK [PTEN_Y178_YF] has a phosphorylation enrichment of 0.612. LLKKMYLMLDN [STAT1_Y203] was tested, and the phosphorylation enrichment was 0.521. For GIVEDYRPPFF [ACVRL1_Y421_YF], the phosphorylation enrichment was 0.443. KIIRRYVSSEG [ANK2_Y3907] gave a phosphorylation enrichment of 0.365. KSRQIYDAFIM [GRK3_Y109_R104K_YF] gave a phosphorylation enrichment of 14.4. RDIHDYIKHLG [UNC13C_Y308] was tested, and the phosphorylation enrichment was 0.582. HDRNTYEKYLG [TF_Y666] showed a phosphorylation enrichment of 0.668. EQKKYYNAMKN [SCN5A_Y1495_K1500N] gave a phosphorylation enrichment of 0.354.

These sequences were tested against Fes (UniProt P07332) in the same assay as above.
Chain of Fes (P07332 whole entry, looked up): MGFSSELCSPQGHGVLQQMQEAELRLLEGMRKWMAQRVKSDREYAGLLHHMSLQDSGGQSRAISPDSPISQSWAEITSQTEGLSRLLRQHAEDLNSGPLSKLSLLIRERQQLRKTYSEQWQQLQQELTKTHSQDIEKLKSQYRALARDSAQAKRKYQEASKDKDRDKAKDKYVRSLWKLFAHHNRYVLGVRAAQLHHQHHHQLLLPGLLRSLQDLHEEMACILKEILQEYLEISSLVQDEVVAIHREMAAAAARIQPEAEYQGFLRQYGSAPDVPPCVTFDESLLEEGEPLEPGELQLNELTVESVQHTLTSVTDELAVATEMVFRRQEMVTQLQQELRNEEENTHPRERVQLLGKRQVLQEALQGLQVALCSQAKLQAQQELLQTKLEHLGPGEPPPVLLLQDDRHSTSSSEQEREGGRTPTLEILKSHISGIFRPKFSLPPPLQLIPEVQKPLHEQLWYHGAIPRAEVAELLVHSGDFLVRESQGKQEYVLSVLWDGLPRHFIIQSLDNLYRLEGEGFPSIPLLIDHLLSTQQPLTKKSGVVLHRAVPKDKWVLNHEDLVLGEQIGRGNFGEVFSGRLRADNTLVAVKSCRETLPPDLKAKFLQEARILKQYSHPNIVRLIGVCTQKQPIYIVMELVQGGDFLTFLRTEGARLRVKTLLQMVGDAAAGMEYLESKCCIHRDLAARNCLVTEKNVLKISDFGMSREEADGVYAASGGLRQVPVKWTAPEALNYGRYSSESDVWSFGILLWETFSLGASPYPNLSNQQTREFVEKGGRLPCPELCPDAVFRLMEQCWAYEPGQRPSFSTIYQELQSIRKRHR
AGREEYSAMRD [KRAS_Y64_Q61R] gave a phosphorylation enrichment of 0.834. In the case of TDGNGYISFNE [LCP1_Y28], the phosphorylation enrichment was 1.13. ETDSEYVKLSK [C7orf57_Y70_A74S] gave a phosphorylation enrichment of 1.13. In the case of RASSSYRETPS [SORBS1_Y79], the phosphorylation enrichment was 0.659. Work on EKKDVYKTGEQ [CFH_Y1008_A1010T] yielded a phosphorylation enrichment of 0.663. In the case of QMQAAYQKAVA [HBD_Y131_V134A], the phosphorylation enrichment was 0.798. RLNWIYFKDQT [RS1_Y165_YF] was tested, and the phosphorylation enrichment was 2.3. Work on RTCSSYTIEKI [PARP15_Y520_A521T] yielded a phosphorylation enrichment of 1.51. KNITEYCRDLI [RECQL_Y492] was tested, and the phosphorylation enrichment was 1.05. MVIPNYSSRTE [UROC1_Y185] showed a phosphorylation enrichment of 0.642. HNVPICEGFAL [ACTC1_Y168_Y168C_YF] showed a phosphorylation enrichment of 1.29. GGGFGYQKTKK [DDX18_Y643] was tested, and the phosphorylation enrichment was 0.52. LNEQHYGGLTG [PGAM4_Y92_R90Q] showed a phosphorylation enrichment of 1.2. KGFRGYSFDDI [TMEM230_Y110_YF] was tested, and the phosphorylation enrichment was 0.798. VDTAMYATMQR [TPO_Y55] was tested, and the phosphorylation enrichment was 0.706. AAARPYHIQKW [ACSBG1_Y677] gave a phosphorylation enrichment of 0.675. VSSPKYGSNDE [TMCC2_Y473_D476N] was tested, and the phosphorylation enrichment was 0.912. KLKRSYCSPDI [USP8_Y717_S718C] was tested, and the phosphorylation enrichment was 0.712. CPSLPYSPVSS [CAMKK2_Y128] gave a phosphorylation enrichment of 0.847. In the case of FQLPFYNTVPS [BMPR1A_Y458_M460T_YF], the phosphorylation enrichment was 0.828. Work on YPPTHYIRRMP [SLC4A11_Y820_V824M] yielded a phosphorylation enrichment of 0.597. For LDYNEYFRYLN [HPRT1_Y198_D201Y], the phosphorylation enrichment was 1.23. For KDQGGYAMHQD [MAPT_Y29_T30A], the phosphorylation enrichment was 0.798. Work on CPASVYTKRCS [CPT2_Y508_R503C] yielded a phosphorylation enrichment of 0.549. With ARMTNYGLPRY [TSPAN12_Y138] the phosphorylation enrichment was 0.739. RFVFFYSFLLK [PTEN_Y178_YF] gave a phosphorylation enrichment of 1.65. LLKKMYLMLDN [STAT1_Y203] showed a phosphorylation enrichment of 0.996. Sequence GIVEDYRPPFF [ACVRL1_Y421_YF] has a phosphorylation enrichment of 0.899. KIIRRYVSSEG [ANK2_Y3907] gave a phosphorylation enrichment of 0.479. For KSRQIYDAFIM [GRK3_Y109_R104K_YF], the phosphorylation enrichment was 0.941. For RDIHDYIKHLG [UNC13C_Y308], the phosphorylation enrichment was 0.696. With HDRNTYEKYLG [TF_Y666] the phosphorylation enrichment was 0.796. With EQKKYYNAMKN [SCN5A_Y1495_K1500N] the phosphorylation enrichment was 0.536.

Each sequence was assayed against Fyn (UniProt P06241) in the same assay as above.
Chain of Fyn (P06241 whole entry, looked up): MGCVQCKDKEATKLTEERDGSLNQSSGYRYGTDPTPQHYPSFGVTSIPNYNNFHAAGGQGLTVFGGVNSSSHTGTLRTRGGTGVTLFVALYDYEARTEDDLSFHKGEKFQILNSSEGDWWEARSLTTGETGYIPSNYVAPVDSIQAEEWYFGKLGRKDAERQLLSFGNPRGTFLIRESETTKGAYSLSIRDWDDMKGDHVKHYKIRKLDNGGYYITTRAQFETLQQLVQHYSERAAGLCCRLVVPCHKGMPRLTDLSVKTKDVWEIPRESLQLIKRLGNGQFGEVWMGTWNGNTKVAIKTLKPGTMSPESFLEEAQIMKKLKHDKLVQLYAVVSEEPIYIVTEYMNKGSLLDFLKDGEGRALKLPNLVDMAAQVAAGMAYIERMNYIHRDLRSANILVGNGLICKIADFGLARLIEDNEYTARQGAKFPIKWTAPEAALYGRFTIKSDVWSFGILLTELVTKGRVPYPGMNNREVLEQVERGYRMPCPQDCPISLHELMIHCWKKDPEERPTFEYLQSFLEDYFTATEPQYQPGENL
Sequence AGREEYSAMRD [KRAS_Y64_Q61R] has a phosphorylation enrichment of 0.479. Work on TDGNGYISFNE [LCP1_Y28] yielded a phosphorylation enrichment of 0.454. Sequence ETDSEYVKLSK [C7orf57_Y70_A74S] has a phosphorylation enrichment of 0.533. RASSSYRETPS [SORBS1_Y79] showed a phosphorylation enrichment of 0.655. EKKDVYKTGEQ [CFH_Y1008_A1010T] was tested, and the phosphorylation enrichment was 0.471. Sequence QMQAAYQKAVA [HBD_Y131_V134A] has a phosphorylation enrichment of 0.47. In the case of RLNWIYFKDQT [RS1_Y165_YF], the phosphorylation enrichment was 0.757. RTCSSYTIEKI [PARP15_Y520_A521T] gave a phosphorylation enrichment of 0.638. Sequence KNITEYCRDLI [RECQL_Y492] has a phosphorylation enrichment of 0.477. MVIPNYSSRTE [UROC1_Y185] gave a phosphorylation enrichment of 0.406. HNVPICEGFAL [ACTC1_Y168_Y168C_YF] gave a phosphorylation enrichment of 0.75. For GGGFGYQKTKK [DDX18_Y643], the phosphorylation enrichment was 0.315. LNEQHYGGLTG [PGAM4_Y92_R90Q] showed a phosphorylation enrichment of 0.956. In the case of KGFRGYSFDDI [TMEM230_Y110_YF], the phosphorylation enrichment was 0.402. VDTAMYATMQR [TPO_Y55] gave a phosphorylation enrichment of 3.02. Sequence AAARPYHIQKW [ACSBG1_Y677] has a phosphorylation enrichment of 0.371. Sequence VSSPKYGSNDE [TMCC2_Y473_D476N] has a phosphorylation enrichment of 0.445. KLKRSYCSPDI [USP8_Y717_S718C] showed a phosphorylation enrichment of 0.401. CPSLPYSPVSS [CAMKK2_Y128] gave a phosphorylation enrichment of 0.545. In the case of FQLPFYNTVPS [BMPR1A_Y458_M460T_YF], the phosphorylation enrichment was 0.465. With YPPTHYIRRMP [SLC4A11_Y820_V824M] the phosphorylation enrichment was 0.397. LDYNEYFRYLN [HPRT1_Y198_D201Y] gave a phosphorylation enrichment of 1.45. KDQGGYAMHQD [MAPT_Y29_T30A] gave a phosphorylation enrichment of 0.392. Work on CPASVYTKRCS [CPT2_Y508_R503C] yielded a phosphorylation enrichment of 0.434. Work on ARMTNYGLPRY [TSPAN12_Y138] yielded a phosphorylation enrichment of 0.619. Sequence RFVFFYSFLLK [PTEN_Y178_YF] has a phosphorylation enrichment of 0.623. Work on LLKKMYLMLDN [STAT1_Y203] yielded a phosphorylation enrichment of 0.38. GIVEDYRPPFF [ACVRL1_Y421_YF] was tested, and the phosphorylation enrichment was 0.464. In the case of KIIRRYVSSEG [ANK2_Y3907], the phosphorylation enrichment was 0.41. KSRQIYDAFIM [GRK3_Y109_R104K_YF] was tested, and the phosphorylation enrichment was 13. In the case of RDIHDYIKHLG [UNC13C_Y308], the phosphorylation enrichment was 0.576. For HDRNTYEKYLG [TF_Y666], the phosphorylation enrichment was 1.41. EQKKYYNAMKN [SCN5A_Y1495_K1500N] showed a phosphorylation enrichment of 0.292.
